Assay results from patent US20150037348A1 (AbbVie / Abbott, published 2015).

What was measured:
Assay in all cases: competition ELISA: soluble cytokine against J695 (100 ng/ml) binding to immobilized human IL-12
[1] = biological target: T1, human soluble IL-6 receptor (human, UniProt P08887 20-358)
T1 construct: Soluble form
T1 sequence (looked up): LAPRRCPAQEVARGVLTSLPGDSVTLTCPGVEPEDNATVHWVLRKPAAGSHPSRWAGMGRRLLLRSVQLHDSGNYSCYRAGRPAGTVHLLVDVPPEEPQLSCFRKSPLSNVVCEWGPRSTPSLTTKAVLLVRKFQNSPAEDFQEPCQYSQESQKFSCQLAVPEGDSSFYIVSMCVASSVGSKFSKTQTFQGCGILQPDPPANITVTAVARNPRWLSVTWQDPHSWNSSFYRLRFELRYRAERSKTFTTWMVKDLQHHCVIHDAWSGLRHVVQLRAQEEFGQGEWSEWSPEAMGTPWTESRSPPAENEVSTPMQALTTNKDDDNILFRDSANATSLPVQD
Protocol: (§1) The plates were washed 4 times and incubated for 1 h at room temperature with 100 μl mouse anti-human lambda-HRP (1:500 in PBS-T/BSA, Southern Biotech. Ass. Inc., Birmingham, Ala.). The plates were washed 4 times and developed with ABTS (Kirkegaard & Perry Lab, Gaithersburg, Md.) for 20-30 minutes in the dark. The OD₄₅₀ nm was read using a microplate reader (Molecular Devices, Menlo Park, Calif.).

[2] = biological target: human IL-1β (human, UniProt P01584 117-269)
Protocol: as §1

[3] = biological target: human IL-17 (human, UniProt Q16552 20-155, limits assumed)
Protocol: as §1

[4] = biological target: T2, human IL-4 (human, UniProt P05112 25-153)
T2 sequence (looked up): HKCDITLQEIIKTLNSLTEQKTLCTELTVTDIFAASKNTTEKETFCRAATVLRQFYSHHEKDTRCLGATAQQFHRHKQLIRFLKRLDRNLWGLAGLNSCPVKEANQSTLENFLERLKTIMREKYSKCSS
Protocol: as §1

[5] = biological target: human IGF-I (human, UniProt P05019 49-118)
Protocol: as §1

[6] = biological target: human IGF-II (human, UniProt P01344 25-91)
Protocol: as §1

[7] = biological target: human IL-10 (human, UniProt P22301 19-178)
Protocol: as §1

[8] = biological target: human IL-8 (human, UniProt P10145 28-99, limits assumed)
Protocol: as §1

[9] = biological target: T3, human IL-1α (human, UniProt P01583 113-271)
T3 sequence (looked up): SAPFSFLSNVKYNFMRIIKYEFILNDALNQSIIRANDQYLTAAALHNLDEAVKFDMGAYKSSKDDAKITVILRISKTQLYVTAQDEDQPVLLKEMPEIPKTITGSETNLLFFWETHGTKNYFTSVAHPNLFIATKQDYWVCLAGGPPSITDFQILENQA
Protocol: as §1

[10] = biological target: T4, human lymphotoxin (human, UniProt P01374 35-205, limits assumed)
T4 sequence (looked up): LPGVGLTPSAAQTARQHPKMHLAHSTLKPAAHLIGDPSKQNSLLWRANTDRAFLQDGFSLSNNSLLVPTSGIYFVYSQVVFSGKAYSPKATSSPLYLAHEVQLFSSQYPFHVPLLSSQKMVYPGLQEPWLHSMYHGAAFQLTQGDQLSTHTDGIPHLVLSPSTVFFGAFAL
Protocol: as §1

[11] = biological target: human IL-6 (human, UniProt P05231 30-212)
Protocol: as §1

[12] = biological target: T5, human IL-11 (human, UniProt P20809 22-199)
T5 sequence (looked up): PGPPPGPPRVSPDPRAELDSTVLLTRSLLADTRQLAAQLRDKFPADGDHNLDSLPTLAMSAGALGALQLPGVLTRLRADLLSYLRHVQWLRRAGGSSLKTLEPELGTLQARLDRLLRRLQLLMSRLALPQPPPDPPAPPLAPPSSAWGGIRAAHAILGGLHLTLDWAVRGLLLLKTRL
Protocol: as §1

[13] = biological target: human TGF-β1 (human, UniProt P01137 279-390)
Protocol: as §1

[14] = biological target: human LIF (human, UniProt P15018 23-202)
Protocol: as §1

[15] = biological target: T6, human IFN-gamma (human, UniProt P01579 24-166, limits assumed)
T6 sequence (looked up): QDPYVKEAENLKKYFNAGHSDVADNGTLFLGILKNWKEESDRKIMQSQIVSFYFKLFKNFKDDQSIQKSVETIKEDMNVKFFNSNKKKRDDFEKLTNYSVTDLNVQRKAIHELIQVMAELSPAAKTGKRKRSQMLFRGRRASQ
Protocol: as §1

[16] = biological target: T7, human M-CSF (human, UniProt P09603 33-190, limits assumed)
T7 sequence (looked up): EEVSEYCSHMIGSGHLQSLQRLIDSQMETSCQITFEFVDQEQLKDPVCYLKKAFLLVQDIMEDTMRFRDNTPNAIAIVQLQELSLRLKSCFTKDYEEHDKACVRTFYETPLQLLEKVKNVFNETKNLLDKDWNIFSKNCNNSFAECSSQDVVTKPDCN
Protocol: as §1

Measured: binding result

B1: J695 (antibody, V domains shown)
VH: QVQLVESGGGVVQPGRSLRLSCAASGFTFSSYGMHWVRQAPGKGLEWVAFIRYDGSNKYYADSVKGRFTISRDNSKNTLYLQMNSLRAEDTAVYYCKTHGSHDNWGQGTMVTVSS
VL: QSVLTQPPSVSGAPGQRVTISCSGSRSNIGSNTVKWYQQLPGTAPKLLIYYNDQRPSGVPDRFSGSKSGTSASLAITGLQAEDEADYYCQSYDRYTHPALLFGTGTKVTVLG
notes: Human IgG1 with lambda light chain (detected with anti-human lambda); Made in CHO or COS cells
no binding (tested: 2 nM): all assays above
